Source: patent publication US20230303623A1, “PEPTIDES AND METHODS OF USE” (REALTA LIFE SCIENCES, INC., priority 2020, published 2023)
Entries after “also recorded” stand apart in the source; their conditions may differ.

Molecular target: T1, CTLA-4 (Homo sapiens, UniProt P16410)
T1 sequence (P16410 36-223): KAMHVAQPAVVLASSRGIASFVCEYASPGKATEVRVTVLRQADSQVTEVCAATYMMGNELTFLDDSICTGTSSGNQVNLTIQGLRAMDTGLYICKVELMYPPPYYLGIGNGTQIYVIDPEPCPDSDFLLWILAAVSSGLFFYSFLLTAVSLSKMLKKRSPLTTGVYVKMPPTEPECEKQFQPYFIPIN
Assay: CTLA-4 Blockade Bioassay (Promega)
Assay type: cell-based
Set-up: host or cells: Jurkat T cells (CTLA-4 effector cells) co-cultured with aAPC/Raji cells
Details: increasing concentrations; listed as RLS-0122
Protocol: CTLA-4 effector cells were incubated with aAPC/Raji Cells in the absence or presence of increasing concentrations of anti-CTLA-4 antibody (positive control), RLS-0122, RLS-0150, RLS-0154, RLS-0164 and RLS-0168 and RLS-0088 (negative control). Luminescence was detected in luminometer plate reader. The drop-off in signal with the test peptides at high concentrations is due to cell death as a result of peptide buffer effects on the cells.
To assess if PIC1 peptides could block CTLA-4 inhibitory activity in a cell-based assay, select peptides were screened in the CTLA-4 Blockade Bioassay (Promega). This bioluminescent cell-based assay can be used to measure the potency and stability of molecules targeting CTLA-4 and consists of two genetically engineered cell lines: CTLA-4 effector cells: Jurkat T cells expressing human CTLA-4 and a luciferase reporter driven by a native promoter which responds to TCR/CD28 activation and aAPC/Raji Cells: Raji cells expressing an engineered cell surface protein designed to activate cognate TCRs in an antigen-independent manner and endogenously expressing CTLA-4 ligands CD80 and CD86. When the two cell types are co-cultured, CTLA-4 competes with CD28 for their shared ligands, CD80 and CD86 and thus inhibits CD28 pathway activation and promoter-mediated luminescence. Addition of a molecule that blocks the interaction of CTLA-4 with its ligands CD80 and CD86 results in promoter-mediated luminescence.

“IAdLILEP(Sar)CCQERAA (IALILEPXCCQERAA; D-Leu; sarcosine; MOD_RES (3)..(3) D-amino acid; MOD_RES (8)..(8) Sarcosine) [PA-0122]” was tested, and the “inhibition of CTLA-4 mediated cell signaling (increase in luminescence), in words” value was “showed inhibitory activity; also recorded: able to inhibit CTLA-4 mediated cell signaling”.
